Data taken from publication doi:10.1101/553800.

Target: hRIO2(1-321)Δ(131-146) (human) (UniProt Q9BVS4)
Test: AUC

percent dimer at 27 μM: > 20%
stoichiometry N: 2
Substance: hRIO2(1-321)Δ(131-146) (from UniProt Q9BVS4 1-321) (domain or fragment)
